According to article PMC2879411, “Molecular Basis for the Dual Function of Eps8 on Actin Dynamics: Bundling and Capping” (PLoS Biology, 2010):

Target: monomeric actin (CaATP-G-actin) from rabbit muscle, unlabelled (rabbit, UniProt P68135 1-377)
Assay: cell-based or functional assay

Binder: VCPEGARVFNQITVQKAALEDSNG [Eps8 isolated predicted helix H5 (residues 765–788)]
- Kd from inhibition of barbed end growth (spectrin-actin seeds): 40 µM
- Kd from inhibition of pointed end growth (gelsolin-actin seeds): 32 µM
